Data from patent publication US20100310509A1 (published 2010).

T1: gp130 bound OSM-WT (gp130:OSM-WT) (human, UniProt P40189 23-619)
T1 construct: extracellular domain; Non-covalent complex formed on the plate: gp130 coated, then 200 nM OSM-WT; also called OSM-WT with gp130; not shown: N-terminal FLAG tag
T1 sequence 1: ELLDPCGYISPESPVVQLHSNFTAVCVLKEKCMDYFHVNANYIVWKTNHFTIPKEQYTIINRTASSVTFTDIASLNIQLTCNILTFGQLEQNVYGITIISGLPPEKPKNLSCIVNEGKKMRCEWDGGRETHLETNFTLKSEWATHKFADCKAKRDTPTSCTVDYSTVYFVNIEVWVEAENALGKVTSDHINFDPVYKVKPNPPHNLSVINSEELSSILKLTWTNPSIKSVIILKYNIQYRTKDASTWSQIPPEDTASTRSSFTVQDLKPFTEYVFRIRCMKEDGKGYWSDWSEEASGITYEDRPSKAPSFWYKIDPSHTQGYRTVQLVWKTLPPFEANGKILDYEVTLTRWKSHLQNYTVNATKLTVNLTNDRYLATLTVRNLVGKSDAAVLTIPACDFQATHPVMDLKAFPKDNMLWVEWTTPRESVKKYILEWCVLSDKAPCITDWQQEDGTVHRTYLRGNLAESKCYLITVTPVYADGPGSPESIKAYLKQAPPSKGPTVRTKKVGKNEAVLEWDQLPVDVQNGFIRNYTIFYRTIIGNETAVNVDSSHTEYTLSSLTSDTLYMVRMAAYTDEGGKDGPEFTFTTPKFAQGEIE
T1 sequence 2: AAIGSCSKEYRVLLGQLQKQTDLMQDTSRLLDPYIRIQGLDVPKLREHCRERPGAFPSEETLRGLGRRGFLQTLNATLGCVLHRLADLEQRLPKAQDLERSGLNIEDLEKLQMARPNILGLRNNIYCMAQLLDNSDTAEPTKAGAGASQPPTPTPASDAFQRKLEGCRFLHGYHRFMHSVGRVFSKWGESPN

B1: gp130 bound LIF (gp130:LIF) (other)
chain 1: T1 sequence 1
chain 2: not shown
notes: Non-covalent complex formed on the plate: gp130 coated, then saturating cytokine; also called LIF with gp130
B2: gp130 bound OSM-M2 (gp130:OSM-M2) (other, human)
chain 1: T1 sequence 1
chain 2: AAIGSCSKEYRVLLGQLQKQTDLMQDTSRLLDPYIRIQGLDVPKLREHCRERPGAFPSEETLRGLGRRGFLQTLNATLGCVLHRLADLEQRLGGGNIEDLEKLQMARPNILGLRNNIYCMAQLLDNSDTAEPTKAGAGASQPPTPTPASDAFQRKLEGCRFLHGYHRFMHSVGRVFSKWGESPN
notes: extracellular domain; Non-covalent complex formed on the plate: gp130 coated, then 200 nM OSM-M2; also called OSM-M2 with gp130; not shown: N-terminal FLAG tag
B3: gp130 bound OSM-M1 (gp130:OSM-M1) (other, human)
chain 1: T1 sequence 1
chain 2: AAIGSCSKEYRVLLGQLQKQTDLMQDTSRLLDPYIRIQGLDVPKLREHCRERPGAFPSEETLRGLGRRGFLQTLNATLGCVLHRLADLEQRLGAPSGLNIEDLEKLQMARPNILGLRNNIYCMAQLLDNSDTAEPTKAGAGASQPPTPTPASDAFQRKLEGCRFLHGYHRFMHSVGRVFSKWGESPN
notes: extracellular domain; Non-covalent complex formed on the plate: gp130 coated, then 200 nM OSM-M1; also called OSM-M1 with gp130; not shown: N-terminal FLAG tag
B4: soluble human LIFR (leukemia inhibitory factor receptor) (receptor, UniProt P42702 45-833, looked up)
chain: QKKGAPHDLKCVTNNLQVWNCSWKAPSGTGRGTDYEVCIENRSRSCYQLEKTSIKIPALSHGDYEITINSLHDFGSSTSKFTLNEQNVSLIPDTPEILNLSADFSTSTLYLKWNDRGSVFPHRSNVIWEIKVLRKESMELVKLVTHNTTLNGKDTLHHWSWASDMPLECAIHFVEIRCYIDNLHFSGLEEWSDWSPVKNISWIPDSQTKVFPQDKVILVGSDITFCCVSQEKVLSALIGHTNCPLIHLDGENVAIKIRNISVSASSGTNVVFTTEDNIFGTVIFAGYPPDTPQQLNCETHDLKEIICSWNPGRVTALVGPRATSYTLVESFSGKYVRLKRAEAPTNESYQLLFQMLPNQEIYNFTLNAHNPLGRSQSTILVNITEKVYPHTPTSFKVKDINSTAVKLSWHLPGNFAKINFLCEIEIKKSNSVQEQRNVTIKGVENSSYLVALDKLNPYTLYTFRIRCSTETFWKWSKWSNKKQHLTTEASPSKGPDTWREWSSDGKNLIIYWKPLPINEANGKILSYNVSCSSDEETQSLSEIPDPQHKAEIRLDKNDYIISVVAKNSVGSSPPSKIASMEIPNDDLKIEQVVGMGKGILLTWHYDPNMTCDYVIKWCNSSRSEPCLMDWRKVPSNSTETVIESDEFRPGIRYNFFLYGCRNQGYQLLRSMIGYIEELAPIVAPNFTVEDTSADSILVKWEDIPVEELRGFLRGYLFYFGKGERDTSKMRVLESGRSDIKVKNITDISQKTLRIADLQGKTSYHLVLRAYTDGGVGPEKSMYVVTKENS
notes: extracellular domain; Bought; also called soluble LIFR

How the values were obtained:
[1] = target: B4; assay: ELISA, apparent KD (KD,App), gp130 coated, saturating cytokine, soluble LIFR titrated (with gp130)
Experimental: (§1) FIG. 13 graphically depicts an ELISA analysis of soluble OSMR and soluble LIFR binding with LIF, OSM-WT, OSM-M1 and OSM-M2 or gp130 bound LIF (gp130:LIF), OSM-WT (gp130:OSM-WT), OSM-M1 (gp130:OSM-M1) and OSM-M2 (gp130:OSM-M2). Cytokines (LIF, OSM-WT, OSM-M1 or OSM-M2) immobilized on an ELISA plate in the absence (A,C) or presence (B,D) of gp130 were treated with various concentrations of soluble OSMR (A,B) or soluble LIFR (C,D). Equilibrium KD values were estimated using a non-linear curve fitting to the binding data using GraphPad Prism (Graph Pad Software. LaJolla, Calif.). In addition, see Table 3.
(§2) Enzyme-linked immunosorbent assay (ELISA): ELISA was used to evaluate the equilibrium binding strength of the interaction between the cytokines and their receptors. This technique has traditionally been used as a sensitive method to quantify the binding affinities between two interacting proteins. However, unlike in SPR, ELISA involves immobilization of the proteins on a flat plastic surface driven by hydrophobic and ionic interactions. This might cause some distortion in the 3 dimensional structure of immobilized protein which leads to inaccuracies in the estimation of dissociation constants. It is thus important to bear in mind that the values estimated using this technique are to be used only for comparison between species but not as true equilibrium binding constants. The results obtained using this technique will thus be presented as apparent equilibrium dissociation constants (K_{D,App}). For direct interaction studies, cytokines (LIF, OSM-WT, OSM-M1 or OSM-M2) were immobilized on the 96 well ELISA plate by incubating the wells with 200 μl of 5 nM cytokine solution in PBS, pH 7.4 overnight at 4° C. The wells were then blocked with blocking buffer (4% BSA in PBS) for 1 hour at room temperature. After washing with 250 μl of washing buffer (0.05% Tween-20 in PBS) 3 times, the cytokines were treated with a series of concentrations of soluble human LIFR (Catalog #249-LR-050/CF, R&D Systems, Minneapolis, Minn.) or OSMR (Catalog #4389-OR-050, R&D Systems, Minneapolis, Minn.) in 150 μl of blocking buffer for 2 hours.

[2] = target: T1, gp130 bound OSM-WT (gp130:OSM-WT); assay: as above
Experimental: as §1, §2

| Kd [1] [nM] | Kd [2] [nM] | Binder |
| --- | --- | --- |
| 10.3 |  | B1 |
| 9.13 |  | B2 |
| 12.6 |  | B3 |
|  | 70.3 | B4 |
